Data from patent US20040101829A1 (UNIVERSITY OF IOWA RESEARCH FOUNDATION, published 2004).

B1: human low density lipoprotein receptor (LDLr) on MOLT-4 cells (receptor)
chain: not shown
notes: whole, on cells; also called human LDLr; hLDLr
B2: Purified recombinant HCV envelope glycoprotein E2 (Ala 384-Lys 715) (other)
chain: ETHVTGGSAGHTVSGFVSLLAPGAKQNVQLINTNGSWHLNSTALNCNDSLNTGWLAGLFYHHKFNSSGCPERLASCRPLTDFDQGWGPISYANGSGPDQRPYCWHYPPKPCGIVPAKSVCGPVYCFTPSPVVVGTTDRSGAPTYSWGENDTDVFVLNNTRPPLGNWFGCTWMNSTGFTKVCGAPPCVIGGAGNNTLHCPTDCFRKHPDATYSRCGSGPWITPRCLVDYPYRLWHYPCTINYTIFKIRMYVGGVEHRLEAACNWTRGERCDLEDRDRSELSPLLLTTTQWQVLPCSFTTLPALSTGLIHLHQNIVDVQYLYGVGSSIASWAIK
notes: also called HCV E2; HCV-E2
B3: murine CD81 on parental (control) mouse 3T3 cells (receptor, UniProt P35762 1-236, looked up)
chain: MGVEGCTKCIKYLLFVFNFVFWLAGGVILGVALWLRHDPQTTSLLYLELGNKPAPNTFYVGIYILIAVGAVMMFVGFLGCYGAIQESQCLLGTFFTCLVILFACEVAAGIWGFVNKDQIAKDVKQFYDQALQQAVMDDDANNAKAVVKTFHETLNCCGSNALTTLTTTILRNSLCPSGGNILTPLLQQDCHQKIDELFSGKLYLIGIAAIVVAVIMIFEMILSMVLCCGIRNSSVY
notes: whole, on cells; also called control 3T3 cells

How the values were obtained:
[1] = target: T1, apoprotein B (apoB100), delipidized protein (human, UniProt P04114 28-4563); experiment: flow cytometry on MOLT-4 cells, cell-bound apoB detected with goat polyclonal antibody
T1 construct: also called apo-B delipidized protein; apoprotein apoB100
T1 sequence (P04114 28-4563 limits assumed): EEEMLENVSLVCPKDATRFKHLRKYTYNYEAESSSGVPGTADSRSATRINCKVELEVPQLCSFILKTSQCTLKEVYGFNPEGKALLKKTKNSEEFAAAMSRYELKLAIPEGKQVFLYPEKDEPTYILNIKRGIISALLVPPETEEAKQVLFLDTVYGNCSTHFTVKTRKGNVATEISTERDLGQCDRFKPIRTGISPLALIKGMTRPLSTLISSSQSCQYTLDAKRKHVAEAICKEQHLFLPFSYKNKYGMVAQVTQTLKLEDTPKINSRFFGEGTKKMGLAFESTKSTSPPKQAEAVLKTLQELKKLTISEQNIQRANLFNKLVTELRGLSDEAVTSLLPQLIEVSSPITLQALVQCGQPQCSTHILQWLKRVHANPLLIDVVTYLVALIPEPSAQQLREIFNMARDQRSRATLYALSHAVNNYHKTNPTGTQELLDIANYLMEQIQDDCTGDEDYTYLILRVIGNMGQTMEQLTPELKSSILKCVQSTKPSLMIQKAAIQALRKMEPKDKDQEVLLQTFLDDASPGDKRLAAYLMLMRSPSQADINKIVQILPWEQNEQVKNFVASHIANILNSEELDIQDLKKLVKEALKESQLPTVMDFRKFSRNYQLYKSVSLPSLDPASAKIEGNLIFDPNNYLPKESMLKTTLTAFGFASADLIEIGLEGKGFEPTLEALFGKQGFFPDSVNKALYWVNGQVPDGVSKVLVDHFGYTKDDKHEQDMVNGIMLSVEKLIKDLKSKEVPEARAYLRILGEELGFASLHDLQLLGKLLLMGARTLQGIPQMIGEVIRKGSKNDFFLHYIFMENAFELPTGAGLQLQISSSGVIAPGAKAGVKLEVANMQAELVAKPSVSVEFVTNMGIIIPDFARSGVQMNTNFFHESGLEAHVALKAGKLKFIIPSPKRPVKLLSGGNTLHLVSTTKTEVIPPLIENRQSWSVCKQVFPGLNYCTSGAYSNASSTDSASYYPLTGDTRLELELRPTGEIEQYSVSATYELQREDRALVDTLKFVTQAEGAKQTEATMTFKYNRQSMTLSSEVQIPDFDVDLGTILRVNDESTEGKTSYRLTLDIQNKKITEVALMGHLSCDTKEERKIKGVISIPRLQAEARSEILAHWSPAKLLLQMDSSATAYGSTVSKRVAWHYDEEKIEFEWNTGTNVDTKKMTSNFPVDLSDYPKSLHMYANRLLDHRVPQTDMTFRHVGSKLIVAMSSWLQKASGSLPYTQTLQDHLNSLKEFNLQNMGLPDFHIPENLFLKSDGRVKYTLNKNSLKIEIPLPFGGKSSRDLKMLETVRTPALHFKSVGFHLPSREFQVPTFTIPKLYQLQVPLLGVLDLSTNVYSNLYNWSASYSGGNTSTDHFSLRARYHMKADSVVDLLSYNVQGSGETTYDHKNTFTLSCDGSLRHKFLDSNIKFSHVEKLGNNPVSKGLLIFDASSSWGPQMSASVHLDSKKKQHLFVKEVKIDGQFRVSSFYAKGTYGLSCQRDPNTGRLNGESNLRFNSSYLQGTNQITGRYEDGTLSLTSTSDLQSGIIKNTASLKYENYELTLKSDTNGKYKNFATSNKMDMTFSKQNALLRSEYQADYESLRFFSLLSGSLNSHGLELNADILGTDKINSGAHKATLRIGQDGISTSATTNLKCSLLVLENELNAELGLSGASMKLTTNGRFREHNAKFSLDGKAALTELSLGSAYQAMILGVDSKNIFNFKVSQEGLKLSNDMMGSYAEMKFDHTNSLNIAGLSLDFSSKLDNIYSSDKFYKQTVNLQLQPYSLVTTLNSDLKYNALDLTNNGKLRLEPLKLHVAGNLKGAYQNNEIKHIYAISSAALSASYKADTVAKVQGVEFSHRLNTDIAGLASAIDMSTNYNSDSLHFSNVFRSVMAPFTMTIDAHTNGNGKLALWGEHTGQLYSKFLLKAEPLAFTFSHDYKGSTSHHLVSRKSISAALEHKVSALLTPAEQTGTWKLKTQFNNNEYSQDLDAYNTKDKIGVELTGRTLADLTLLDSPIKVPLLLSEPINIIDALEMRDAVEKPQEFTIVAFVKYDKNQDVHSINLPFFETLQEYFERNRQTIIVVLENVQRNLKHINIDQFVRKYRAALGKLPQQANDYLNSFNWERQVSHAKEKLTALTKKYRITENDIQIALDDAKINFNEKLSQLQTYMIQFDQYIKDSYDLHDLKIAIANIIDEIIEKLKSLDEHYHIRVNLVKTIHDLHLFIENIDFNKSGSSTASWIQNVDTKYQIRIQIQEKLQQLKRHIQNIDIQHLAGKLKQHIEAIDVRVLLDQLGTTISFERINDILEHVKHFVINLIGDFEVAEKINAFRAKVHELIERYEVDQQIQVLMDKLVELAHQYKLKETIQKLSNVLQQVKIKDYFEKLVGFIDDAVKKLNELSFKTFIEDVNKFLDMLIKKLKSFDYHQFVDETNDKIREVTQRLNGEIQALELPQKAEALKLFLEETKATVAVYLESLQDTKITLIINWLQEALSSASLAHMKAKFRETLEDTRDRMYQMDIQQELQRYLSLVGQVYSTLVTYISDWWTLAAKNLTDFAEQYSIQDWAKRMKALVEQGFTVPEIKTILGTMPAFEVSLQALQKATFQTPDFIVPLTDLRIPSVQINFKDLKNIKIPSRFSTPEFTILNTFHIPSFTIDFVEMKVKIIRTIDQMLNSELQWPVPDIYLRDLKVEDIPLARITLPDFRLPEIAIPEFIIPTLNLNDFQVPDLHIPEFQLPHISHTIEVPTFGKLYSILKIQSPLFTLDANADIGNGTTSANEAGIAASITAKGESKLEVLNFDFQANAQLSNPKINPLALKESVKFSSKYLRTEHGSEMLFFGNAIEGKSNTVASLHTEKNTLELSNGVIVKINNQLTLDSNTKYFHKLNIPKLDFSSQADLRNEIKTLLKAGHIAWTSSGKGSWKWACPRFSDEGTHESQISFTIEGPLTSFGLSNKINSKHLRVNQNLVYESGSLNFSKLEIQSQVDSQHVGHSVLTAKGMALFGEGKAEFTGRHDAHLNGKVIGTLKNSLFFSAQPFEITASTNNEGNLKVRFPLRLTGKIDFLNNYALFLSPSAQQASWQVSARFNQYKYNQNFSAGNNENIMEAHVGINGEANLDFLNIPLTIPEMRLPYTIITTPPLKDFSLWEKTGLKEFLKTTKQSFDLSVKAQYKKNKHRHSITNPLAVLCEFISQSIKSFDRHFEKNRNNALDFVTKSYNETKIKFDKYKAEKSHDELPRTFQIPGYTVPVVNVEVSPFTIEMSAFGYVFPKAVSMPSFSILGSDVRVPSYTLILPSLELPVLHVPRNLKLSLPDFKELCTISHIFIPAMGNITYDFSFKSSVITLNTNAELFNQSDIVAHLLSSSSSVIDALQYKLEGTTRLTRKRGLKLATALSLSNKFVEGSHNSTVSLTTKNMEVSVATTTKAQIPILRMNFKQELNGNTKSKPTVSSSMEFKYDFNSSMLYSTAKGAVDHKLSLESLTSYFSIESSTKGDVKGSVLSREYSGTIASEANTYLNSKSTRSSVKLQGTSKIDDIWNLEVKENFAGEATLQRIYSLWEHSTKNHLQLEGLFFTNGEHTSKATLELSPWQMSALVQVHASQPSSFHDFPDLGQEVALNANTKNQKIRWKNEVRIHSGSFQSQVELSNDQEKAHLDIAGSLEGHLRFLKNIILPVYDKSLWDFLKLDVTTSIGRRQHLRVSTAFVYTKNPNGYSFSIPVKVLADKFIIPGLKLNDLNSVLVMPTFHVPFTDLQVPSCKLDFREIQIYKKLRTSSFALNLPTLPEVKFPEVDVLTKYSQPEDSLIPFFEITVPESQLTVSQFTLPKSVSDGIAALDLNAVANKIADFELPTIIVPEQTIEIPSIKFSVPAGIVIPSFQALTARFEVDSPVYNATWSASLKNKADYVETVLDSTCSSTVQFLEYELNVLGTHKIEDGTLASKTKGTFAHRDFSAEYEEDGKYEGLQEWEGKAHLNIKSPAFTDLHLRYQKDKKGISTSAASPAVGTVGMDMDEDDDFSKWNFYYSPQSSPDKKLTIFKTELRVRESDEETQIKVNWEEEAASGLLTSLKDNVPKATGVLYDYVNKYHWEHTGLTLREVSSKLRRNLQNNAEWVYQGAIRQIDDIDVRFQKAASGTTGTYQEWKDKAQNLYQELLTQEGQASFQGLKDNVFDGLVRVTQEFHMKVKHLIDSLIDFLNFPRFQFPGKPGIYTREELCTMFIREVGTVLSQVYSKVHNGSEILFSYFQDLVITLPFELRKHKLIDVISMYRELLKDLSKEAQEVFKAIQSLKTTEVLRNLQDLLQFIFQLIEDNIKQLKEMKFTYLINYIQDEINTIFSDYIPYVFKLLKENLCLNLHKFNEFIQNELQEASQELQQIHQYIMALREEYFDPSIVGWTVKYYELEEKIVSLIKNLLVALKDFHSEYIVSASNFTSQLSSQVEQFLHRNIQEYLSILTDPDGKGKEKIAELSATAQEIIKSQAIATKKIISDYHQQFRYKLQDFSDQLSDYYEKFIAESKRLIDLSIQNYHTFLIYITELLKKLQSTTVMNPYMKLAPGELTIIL

[2] = target: T1, apoprotein B (apoB100), delipidized …; experiment: flow cytometry on MOLT-4 cells incubated with E2, apo-B delipidized protein and E2/apoB; cell-bound E2 detected with antibody 108
[3] = target: B2; experiment: flow cytometry, recombinant E2 on mouse 3T3 cells expressing only murine CD81

B1
binding result [1]: binds

B2
binding result [2]: no binding

B3
binding result [3]: no binding
